This is an account of results in PMC4698670, “Fortilin potentiates the peroxidase activity of Peroxiredoxin-1 and protects against alcohol-induced liver damage in mice” (Scientific Reports, 2016).

This experiment has as its target T1, recombinant human PRX1 (Sigma-Aldrich) (human, UniProt Q06830 1-199).
T1 construct: recombinant human peroxiredoxin-1, bought; construct not described; also called recombinant PRX1; source: bought: Sigma-Aldrich
T1 sequence (looked up): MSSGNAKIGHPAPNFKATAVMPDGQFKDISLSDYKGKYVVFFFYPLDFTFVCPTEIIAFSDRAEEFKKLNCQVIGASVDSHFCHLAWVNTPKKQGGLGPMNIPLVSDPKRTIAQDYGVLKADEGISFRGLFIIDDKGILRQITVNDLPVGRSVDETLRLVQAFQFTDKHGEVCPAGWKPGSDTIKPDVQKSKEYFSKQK
Nature of the experiment: BLI; BLItz; biotinylated fortilin immobilized on streptavidin biosensors (1 μg/mL, 25 mM Tris, 150 mM NaCl, 0.1% Tween-20), then PBS; recombinant PRX1 in solution, 180 s association, 300 s dissociation in PBS; three independent experiments. The note with it: both partners purified. For orientation: Biolayer interferometry detects binding as a change in optical thickness at a sensor tip.

The term Kd denotes the constant that tells how readily two partners part at equilibrium.

B1: recombinant human fortilin tagged with the Strep-tag II (natural protein, UniProt P13693 1-172, looked up)
chain: MIIYRDLISHDEMFSDIYKIREIADGLCLEVEGKMVSRTEGNIDDSLIGGNASAEGPEGEGTESTVITGVDIVMNHHLQETSFTKEAYKKYIKDYMKSIKGKLEEQRPERVKPFMTGAAEQIKHILANFKNYQFFIGENMNPDGMVALLDYREDGVTPYMIFFKDGLEMEKC
modifications: biotin (biotinylated for the biolayer interferometry)
notes: human fortilin (TCTP) cDNA in the pESG-IBA5 vector; Biotinylated only for the biolayer interferometry; used without biotin in the activity and phosphorylation assays; also called recombinant fortilin; wild-type fortilin; source: 293T cells stably expressing it, purified (Strep-Tactin-Superflow resin)
On to B1, for which the equilibrium dissociation constant (Kd) was determined as 125 nM.
